Reference: article PMC10357448

Assay: In vitro trypsin digestion, SDS-PAGE densitometry
Settings: glycan changed form; control: WT (HEK293), one N-glycan

B1: Interleukin-4 (IL-4): WT (P. pastoris) (protein)
parent chain: MGLTSQLLPPLFFLLACAGNFVHGHKCDITLQEIIKTLNSLTEQKTLCTELTVTDIFAASKNTTEKETFCRAATVLRQFYSHHEKDTRCLGATAQQFHRHKQLIRFLKRLDRNLWGLAGLNSCPVKEANQSTLENFLERLKTIMREKYSKCSS
For B1, the “degradation_or_half_life, half_life” value was “decreases, 2.6 ± 0.2 vs 4.9 ± 0.7”.
